Source: US10568344B2, “Methods of improving animal performance” (Novozymes A/S, priority 2015, dated 2020)
Marks after values point to notes of the source that are not given here.

Assay: In vivo broiler trial 2, growth performance
Parameters: species or system male broiler chickens
Protocol: No additional enzymes (e.g. phytase) were added to the feed. The experimental diets (Starter and Grower) were based on soybean meal, wheat and rye (12%) as main ingredients (Table 6). The diets were formulated to contain 222 g crude protein and 12.5 MJ/kg MEN for the starter period and 204 g crude protein and 12.7 MJ/kg MEN for the grower period.

[1] = Grower (d 22-36), 6.25 mg/kg feed
[2] = Grower (d 22-36), 12.5 mg/kg feed
[3] = Grower (d 22-36), 25 mg/kg feed
[4] = Starter (d 1-22), 6.25 mg/kg feed
[5] = Starter (d 1-22), 12.5 mg/kg feed
[6] = Starter (d 1-22), 25 mg/kg feed
[7] = Whole period (d 1-36), 6.25 mg/kg feed
[8] = Whole period (d 1-36), 12.5 mg/kg feed
[9] = Whole period (d 1-36), 25 mg/kg feed

B1: SEQ ID NO: 1: mature amino acid sequence of a wild type GH25 lysozyme from Acremonium alcalophilum with N-terminal SPIRR (protein)
chain: SPIRRRIPGFDISGWQPTTDFARAYANGDRFVYIKATEGTTFKSSAFSRQYTGATQNGFIRGAYHFAQPAASSGAAQARYFASNGGGWSKDGITLPGALDIEYNPNGATCYGLSQSAMVNWIEDFVTTYHGITSRWPVIYTTTDWWTQCTGNSNRFANRCPLWIARYASSVGTLPNGWGFYTFWQYNDKYPQGGDSNWFNGDASRLRALANGD
modifications: Wild type sequence with N-terminal SPIRR
[1]
  FCR: 1.753^a
  FCR, Relative to C (%): 101.9%
  Feed intake: 2705 g/b
  Feed intake, Relative to C (%): 99.1%
  Weight gain: 1545 g/b
  Weight gain, Relative to C (%): 97.4%
[2]
  FCR: 1.692^a
  FCR, Relative to C (%): 98.3%
  Feed intake: 2671 g/b
  Feed intake, Relative to C (%): 97.8%
  Weight gain: 1581 g/b
  Weight gain, Relative to C (%): 99.7%
[3]
  FCR: 1.686^a
  FCR, Relative to C (%): 98%
  Feed intake: 2753 g/b
  Feed intake, Relative to C (%): 100.8%
  Weight gain: 1633 g/b
  Weight gain, Relative to C (%): 102.9%
[4]
  FCR: 1.403^ab
  FCR, Relative to C (%): 101.8%
  Feed intake: 1551^ab g/b
  Feed intake, Relative to C (%): 105.4%
  Weight gain: 1106 g/b
  Weight gain, Relative to C (%): 103.6%
[5]
  FCR: 1.339^b
  FCR, Relative to C (%): 97.1%
  Feed intake: 1403^d g/b
  Feed intake, Relative to C (%): 95.4%
  Weight gain: 1049 g/b
  Weight gain, Relative to C (%): 98.3%
[6]
  FCR: 1.332^b
  FCR, Relative to C (%): 96.6%
  Feed intake: 1434^cd g/b
  Feed intake, Relative to C (%): 97.4%
  Weight gain: 1076 g/b
  Weight gain, Relative to C (%): 100.9%
[7]
  FCR: 1.604^a
  FCR, Relative to C (%): 101.6%
  Feed intake: 4249 g/b
  Feed intake, Relative to C (%): 101.4%
  Weight gain: 2651 g/b
  Weight gain, Relative to C (%): 99.9%
[8]
  FCR: 1.548^bc
  FCR, Relative to C (%): 98.1%
  Feed intake: 4069 g/b
  Feed intake, Relative to C (%): 97.1%
  Weight gain: 2630 g/b
  Weight gain, Relative to C (%): 99.1%
[9]
  FCR: 1.543^c
  FCR, Relative to C (%): 97.8%
  Feed intake: 4181 g/b
  Feed intake, Relative to C (%): 99.8%
  Weight gain: 2709 g/b
  Weight gain, Relative to C (%): 102.1%
Day 1 to day 36, 12.5 mg/kg
  Improvement of FCR compared to the control diet: 1.9%
Day 1 to day 36, 25 mg/kg
  Improvement of FCR compared to the control diet: 2.2%
  Improvement of weight gain compared to C: 2.0%
Grower period, 25 mg/kg
  Improvement of FCR compared to the control diet: 2.0%
  Improvement of weight gain compared to the control diet: 2.9%
Starter period, 6.25 mg/kg
  Improvement of weight gain compared to the control diet: 3.6%
Starter period, 12.5 mg/kg
  Improvement of FCR compared to the control diet: 2.9%
Starter period, 25 mg/kg
  Improvement of FCR compared to the control diet: 3.4%
